# Test results as given in US20210380722A1, “COMPOSITIONS AND METHODS FOR THE TREATMENT OF MAJOR DEPRESSIVE DISORDER” (Snake River Bioscience, Inc., priority 2019, published 2021).
# B1: recombinant neutral ceramidase: recombinant neutral ceramidase (Asah2, R&D, 3,000 pmol/min/μg), consumes plasma ceramide (protein, UniProt Q9JHE3 1-756, looked up)
# Neutral ceramidase: MAKRTFSTLEAFLIFLLVIMTVITVALLTLLFVTSGTIENHKDSGNHWFSTTLGSTTTQPPPITQTPNFPSFRNFSGYYIGVGRADCTGQVSDINLMGYGKNGQNARGLLTRLFSRAFILADPDGSNRMAFVSVELCMISQRLRLEVLKRLESKYGSLYRRDNVILSAIHTHSGPAGFFQYTLYILASEGFSNRTFQYIVSGIMKSIDIAHTNLKPGKIFINKGNVANVQINRSPSSYLLNPQSERARYSSNTDKEMLVLKLVDLNGEDLGLISWFAIHPVSMNNSNHFVNSDNMGYAAYLFEQEKNKGYLPGQGPFVAGFASSNLGDVSPNILGPHCVNTGESCDNDKSTCPNGGPSMCMASGPGQDMFESTHIIGRIIYQKAKELYASASQEVTGPVLAAHQWVNMTDVSVQLNATHTVKTCKPALGYSFAAGTIDGVSGLNITQGTTEGDPFWDTLRDQLLGKPSEEIVECQKPKPILLHSGELTIPHPWQPDIVDVQIVTVGSLAIAAIPGELTTMSGRRFREAIKKEFALYGMKDMTVVIAGLSNVYTHYITTYEEYQAQRYEAASTIYGPHTLSAYIQLFRDLAKAIATDTVANMSSGPEPPFFKNLIASLIPNIADRAPIGKHFGDVLQPAKPEYRVGEVVEVIFVGANPKNSAENQTHQTFLTVEKYEDSVADWQIMYNDASWETRFYWHKGILGLSNATIYWHIPDTAYPGIYRIRYFGHNRKQELLKPAVILAFEGISSPFEVVTT
# Key:
# [1] = system: healthy mice injected with exosomes from patients with MDD; test: exosomes from blood plasma of MDD patients treated in vitro, injected into healthy mice; type: in vivo; settings: human exosomes preincubated with agent, 24 h after injection, FIGS. 5a, 5b
# Experimental: Depressive patients (7 women, 10 men) aged >60 years (mean age=71.1 years, SD=4.7) were recruited at the Psychiatric University Hospital, Basel, Switzerland. […] For comparison, 9 healthy individuals without history of depression (mean age=70.9 years, SD=5.3) were included in the study. The study was approved by the “Ethikkommission der Nordwest—und Zentralschweiz” (EKNZ; No. 2015-148) and all participants provided written informed consent. […]
# (§1) Behavioral testing was performed between 3:00 p.m. and 6:00 p.m. under diffuse indirect room light. […] The time was recorded during which the mice explored a new environment before they began eating. […] The time that the mouse spent in each of the separate compartments was recorded. […] In the coat state test, the appearance of the coat (groomed vs unkempt coat) was scored on the head, neck, back, and ventrum with either a zero for normal status or a 1 for unkempt status. […] After 24 h the mice were again placed in a water-filled cylinder for 6 min, and the time of mobility or immobility during the last 4 min of the second trial was recorded. […]
# Exosomes were isolated from 150 μL blood plasma from patients with major depressive disorder (MDD), and from healthy control subjects. […] Behavior (FIG. 5a) and neurogenesis (FIG. 5b) were determined to measure the occurrence of MDD in mice after injection of human exosomes from depressed patients. […]
# [2] = system: untreated wildtype mice injected with exosomes purified from stressed mice; test: exosomes from stressed mice incubated ex vivo, injected i.v. into untreated wildtype mice; type: in vivo; settings: exosomes from stressed mice incubated 60 min ex vivo with agent, within 24 h, FIGS. 3c, 3d
# Experimental: To achieve in vitro neutralization of consumption of ceramide, 125 μL blood plasma or exosomes (purified from 150 μL blood plasma as described below) were incubated with 0.5 μg purified IgM anti-ceramide antibodies, 0.5 μg control IgM or 1 μg recombinant neutral ceramidase.
# To isolate exosomes from blood plasma, samples were centrifuged at 16,500×g for 20 min. The supernatant was then passed through a 0.22-μm filter and exosomes were harvested by centrifugation twice at 100,000×g for 70 min. The final pellet was resuspended in phosphate-buffered saline (PBS). Exosomes were pelleted by centrifugation at 100,000×g for 70 min, the supernatant was discarded, and the exosomes were resuspended and injected i.v. into healthy mice. […]
# as §1
# [3] = Asah2, R&D; cited from earlier work
# [4] = system: healthy wildtype mice injected with blood plasma from stressed mice; test: blood plasma from stressed mice treated in vitro, injected i.v. into healthy wildtype mice; type: in vivo; settings: plasma from stressed mice incubated in vitro with agent, 125 μL i.v. into non-stressed mice, 24 h later; FIGS. 3a, 3b
# Experimental: Corticosterone (Sigma, St. Louis, Mo.) was administered to mice via the drinking water at 120 mg/L for 7 days. In the chronic unpredictable stress model (CUS), the mice were challenged with unpredictable environmental stress for 8 days, i.e., a reversal of the light/dark cycle, 3 h of 45° tilting of the cage twice each week, shaking at 125 rpm, food deprivation for 14 h, predator sounds (15 min) or wet cages (1 h) with two forms of stress per day in a randomized (unpredictable) order. Blood was collected from the heart into heparin-coated needles and tubes immediately after sacrifice by cervical dislocation. Blood plasma was centrifuged at 3500 rpm for 5 min at 4° C. in an Eppendorf centrifuge. […]
# as §1
# [5] = system: mice stressed with glucocorticosterone or chronic unpredictable environmental stress (CUS); test: i.v. treatment of stressed mice with anti-ceramide antibodies or neutral ceramidase; behavior and neurogenesis; type: in vivo; settings: mice stressed 6 days with glucocorticosterone or CUS
molecule,measurement,setting,value
B1,depressed behavior and reduced neurogenesis induced by exosomes from depressed patients,[1],prevented their effects on mice
same,development of MDD (behavior parameters and neuronal proliferation),[2],prevented development of MDD
same,activity of recombinant neutral ceramidase,[3],"3,000 pmol/min/μg"
same,development of MDD (behavioral changes and neurogenesis in the hippocampus),[4],prevented the development of MDD
same,neurogenesis in the hippocampus (BrdU-positive cells),"[5]; 24 h after first i.v. injection, FIG. 2b",normalized neurogenesis
same,"behavioral signs of major depression (light/dark box, latency to feed, time in center, splash test, forced swim test, coat test)","[5]; i.v. injection 24 h and 12 h before analysis, FIG. 2a",abrogated behavioral signs of major depression in stressed mice
